What all share (test): cell-based or functional assay
Test [1] concerns the target T1, ADAMTS4 (human, UniProt O75173 213-685, limits assumed).
T1 sequence (looked up): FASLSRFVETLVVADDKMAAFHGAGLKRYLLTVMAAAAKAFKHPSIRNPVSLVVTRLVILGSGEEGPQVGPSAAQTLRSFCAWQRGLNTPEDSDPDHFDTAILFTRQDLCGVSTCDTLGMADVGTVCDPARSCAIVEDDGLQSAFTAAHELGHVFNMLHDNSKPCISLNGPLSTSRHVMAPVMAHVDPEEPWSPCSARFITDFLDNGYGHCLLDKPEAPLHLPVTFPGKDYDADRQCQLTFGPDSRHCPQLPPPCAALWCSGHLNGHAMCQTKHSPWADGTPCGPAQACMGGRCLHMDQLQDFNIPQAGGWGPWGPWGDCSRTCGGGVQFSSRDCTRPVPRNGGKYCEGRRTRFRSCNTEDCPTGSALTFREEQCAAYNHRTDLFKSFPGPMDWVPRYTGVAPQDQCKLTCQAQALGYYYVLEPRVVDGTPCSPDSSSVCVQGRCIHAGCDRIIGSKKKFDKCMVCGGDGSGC

Test [2] concerns the target T2, ADAMTS5 (human, UniProt Q9UNA0 262-622, limits assumed).
T2 sequence (looked up): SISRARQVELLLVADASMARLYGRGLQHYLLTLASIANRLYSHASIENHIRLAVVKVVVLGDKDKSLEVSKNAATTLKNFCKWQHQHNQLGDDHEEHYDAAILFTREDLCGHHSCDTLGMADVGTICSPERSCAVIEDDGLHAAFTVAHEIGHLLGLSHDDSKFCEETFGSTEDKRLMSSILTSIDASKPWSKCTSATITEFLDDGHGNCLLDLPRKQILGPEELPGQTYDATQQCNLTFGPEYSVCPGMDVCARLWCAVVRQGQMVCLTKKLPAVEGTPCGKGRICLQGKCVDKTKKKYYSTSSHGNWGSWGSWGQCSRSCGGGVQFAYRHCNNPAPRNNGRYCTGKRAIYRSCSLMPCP

Test [3] deals with MMP13 (human, UniProt P45452 104-471, limits assumed).

B1: Variant A2M, bait region SEQ ID NO 119 (other)
chain: SVSGKPQYMVLVPSLLHTETTEKGCVLLSYLNETVTVSASLESVRGNRSLFTDLEAENDVLHCVAFAVPKSSSNEEVMFLTVQVKGPTQEFKKRTTVMVKNEDSLVFVQTDKSIYKPGQTVKFRVVSMDENFHPLNELIPLVYIQDPKGNRIAQWQSFQLEGGLKQFSFPLSSEPFQGSYKVVVQKKSGGRTEHPFTVEEFVLPKFEVQVTVPKIITILEEEMNVSVCGLYTYGKPVPGHVTVSICRKYSDASDCHGEDSQAFCEKFSGQLNSHGCFYQQVKTKVFQLKRKEYEMKLHTEAQIQEEGTVVELTGRQSSEITRTITKLSFVKVDSHFRQGIPFFGQVRLVDGKGVPIPNKVIFIRGNEANYYSNATTDEHGLVQFSINTTNVMGTSLTVRVNYKDRSPCYGYQWVSEEHEEAHHTAYLVFSPSKSFVHLEPMSHELPCGHTQTVQAHYILNGGTLLGLKKLSFYYLIMAKGGIVRTGTHGLLVKQEDMKGHFSISIPVKSDIAPVARLLIYAVLPTGDVIGDSAKYDVENCLANKVDLSFSPSQSLPASHAHLRVTAAPQSVCALRAVDQSVLLMKPDAELSASSVYNLLPEKDLTGFPGPLNDQDDEDCINRHNVYINGITYTPVSSTNEKDMYSFLEDMGLKAFTNSKIRKPKMCPQLELQQYEMHGPEGLRVGEAIPMSIPIPENFFGVKEEEGLGSKLRKYFPETWIWDLVVVNSAGVAEVGVTVPDTITEWKAGAFCLSEDAGLGISSTASLRAFQPFFVELTMPYSVIRGEAFTLKATVLNYLPKCIRVSVQLEASPAFLAVPVEKEQAPHCICANGRQTVSWAVTPKSLGNVNFTVSAEALESQELCGTEVPSVPEHGRKDTVIKPLLVEPEGLEKETTFNSLLCPSGGEVSEELSLKLPPNVVEESARASVSVLGDILGSAMQNTQNLLQMPYGCGEQNMVLFAPNIYVLDYLNETQQLTPEIKSKAIGYLNTGYQRQLNYKHYDGSYSTFGERYGRNQGNTWLTAFVLKTFAQARAYIFIDEAHITQALIWLSQRQKDNGCFRSSGSLLNNAIKGGVEDEVTLSAYITIALLEIPLTVTHPVVRNALFCLESAWKTAQEGDHGSHVYTKALLAYAFALAGNQDKRKEVLKSLNEEAVKKDNSVHWERPQKPKAPVGHFYEPQAPSAEVEMTSYVLLAYLTAQPAPTSEDLTSATNIVKWITKQQNAQGGFSSTQDTVVALHALSKYGAATFTRTGKAAQVTIQSSGTFSSKFQVDNNNRLLLQQVSLPELPGEYSMKVTGEGCVYLQTSLKYNILPEKEEFPFALGVQTLPQTCDEPKAHTSFQISLSVSYTGSRSASNMAIVDVKMVSGFIPLKPTVKMLERSNHVSRTEVSSNHVLIYLDKVSNQTLSLFFTVLQDVPVRDLKPAIVKVYDYYETDEFAIAEYNAPCSKDLGNADYKDDDDKGASHHHHHH
Turning to B1, the figures for the “Protease Inhibition (% of WT)” value in test [1], in test [2] and in test [3] were 100 % of WT, 170 % of WT and 90 % of WT, respectively.

B2: Variant A2M, bait region SEQ ID NO 120 (other)
chain: SVSGKPQYMVLVPSLLHTETTEKGCVLLSYLNETVTVSASLESVRGNRSLFTDLEAENDVLHCVAFAVPKSSSNEEVMFLTVQVKGPTQEFKKRTTVMVKNEDSLVFVQTDKSIYKPGQTVKFRVVSMDENFHPLNELIPLVYIQDPKGNRIAQWQSFQLEGGLKQFSFPLSSEPFQGSYKVVVQKKSGGRTEHPFTVEEFVLPKFEVQVTVPKIITILEEEMNVSVCGLYTYGKPVPGHVTVSICRKYSDASDCHGEDSQAFCEKFSGQLNSHGCFYQQVKTKVFQLKRKEYEMKLHTEAQIQEEGTVVELTGRQSSEITRTITKLSFVKVDSHFRQGIPFFGQVRLVDGKGVPIPNKVIFIRGNEANYYSNATTDEHGLVQFSINTTNVMGTSLTVRVNYKDRSPCYGYQWVSEEHEEAHHTAYLVFSPSKSFVHLEPMSHELPCGHTQTVQAHYILNGGTLLGLKKLSFYYLIMAKGGIVRTGTHGLLVKQEDMKGHFSISIPVKSDIAPVARLLIYAVLPTGDVIGDSAKYDVENCLANKVDLSFSPSQSLPASHAHLRVTAAPQSVCALRAVDQSVLLMKPDAELSASSVYNLLPEKDLTGFPGPLNDQDDEDCINRHNVYINGITYTPVSSTNEKDMYSFLEDMGLKAFTNSKIRKPKMCPQLEEEGVEEGKEEEGLGSGPAGAARGSELEGRGSPTEGEARGSKLRKYFPETWIWDLVVVNSAGVAEVGVTVPDTITEWKAGAFCLSEDAGLGISSTASLRAFQPFFVELTMPYSVIRGEAFTLKATVLNYLPKCIRVSVQLEASPAFLAVPVEKEQAPHCICANGRQTVSWAVTPKSLGNVNFTVSAEALESQELCGTEVPSVPEHGRKDTVIKPLLVEPEGLEKETTFNSLLCPSGGEVSEELSLKLPPNVVEESARASVSVLGDILGSAMQNTQNLLQMPYGCGEQNMVLFAPNIYVLDYLNETQQLTPEIKSKAIGYLNTGYQRQLNYKHYDGSYSTFGERYGRNQGNTWLTAFVLKTFAQARAYIFIDEAHITQALIWLSQRQKDNGCFRSSGSLLNNAIKGGVEDEVTLSAYITIALLEIPLTVTHPVVRNALFCLESAWKTAQEGDHGSHVYTKALLAYAFALAGNQDKRKEVLKSLNEEAVKKDNSVHWERPQKPKAPVGHFYEPQAPSAEVEMTSYVLLAYLTAQPAPTSEDLTSATNIVKWITKQQNAQGGFSSTQDTVVALHALSKYGAATFTRTGKAAQVTIQSSGTFSSKFQVDNNNRLLLQQVSLPELPGEYSMKVTGEGCVYLQTSLKYNILPEKEEFPFALGVQTLPQTCDEPKAHTSFQISLSVSYTGSRSASNMAIVDVKMVSGFIPLKPTVKMLERSNHVSRTEVSSNHVLIYLDKVSNQTLSLFFTVLQDVPVRDLKPAIVKVYDYYETDEFAIAEYNAPCSKDLGNADYKDDDDKGASHHHHHH
In the case of B2, the “Protease Inhibition (% of WT)” value in test [1] is 88 % of WT; in test [2], 100 % of WT; in test [3], 121 % of WT.

B3: Variant A2M, bait region SEQ ID NO 117 (other)
chain: SVSGKPQYMVLVPSLLHTETTEKGCVLLSYLNETVTVSASLESVRGNRSLFTDLEAENDVLHCVAFAVPKSSSNEEVMFLTVQVKGPTQEFKKRTTVMVKNEDSLVFVQTDKSIYKPGQTVKFRVVSMDENFHPLNELIPLVYIQDPKGNRIAQWQSFQLEGGLKQFSFPLSSEPFQGSYKVVVQKKSGGRTEHPFTVEEFVLPKFEVQVTVPKIITILEEEMNVSVCGLYTYGKPVPGHVTVSICRKYSDASDCHGEDSQAFCEKFSGQLNSHGCFYQQVKTKVFQLKRKEYEMKLHTEAQIQEEGTVVELTGRQSSEITRTITKLSFVKVDSHFRQGIPFFGQVRLVDGKGVPIPNKVIFIRGNEANYYSNATTDEHGLVQFSINTTNVMGTSLTVRVNYKDRSPCYGYQWVSEEHEEAHHTAYLVFSPSKSFVHLEPMSHELPCGHTQTVQAHYILNGGTLLGLKKLSFYYLIMAKGGIVRTGTHGLLVKQEDMKGHFSISIPVKSDIAPVARLLIYAVLPTGDVIGDSAKYDVENCLANKVDLSFSPSQSLPASHAHLRVTAAPQSVCALRAVDQSVLLMKPDAELSASSVYNLLPEKDLTGFPGPLNDQDDEDCINRHNVYINGITYTPVSSTNEKDMYSFLEDMGLKAFTNSKIRKPKMCPQLEENFFGVTEGEARGSPTSEDLVVQKEEEGLGSEAIPMSIPKLRKYFPETWIWDLVVVNSAGVAEVGVTVPDTITEWKAGAFCLSEDAGLGISSTASLRAFQPFFVELTMPYSVIRGEAFTLKATVLNYLPKCIRVSVQLEASPAFLAVPVEKEQAPHCICANGRQTVSWAVTPKSLGNVNFTVSAEALESQELCGTEVPSVPEHGRKDTVIKPLLVEPEGLEKETTFNSLLCPSGGEVSEELSLKLPPNVVEESARASVSVLGDILGSAMQNTQNLLQMPYGCGEQNMVLFAPNIYVLDYLNETQQLTPEIKSKAIGYLNTGYQRQLNYKHYDGSYSTFGERYGRNQGNTWLTAFVLKTFAQARAYIFIDEAHITQALIWLSQRQKDNGCFRSSGSLLNNAIKGGVEDEVTLSAYITIALLEIPLTVTHPVVRNALFCLESAWKTAQEGDHGSHVYTKALLAYAFALAGNQDKRKEVLKSLNEEAVKKDNSVHWERPQKPKAPVGHFYEPQAPSAEVEMTSYVLLAYLTAQPAPTSEDLTSATNIVKWITKQQNAQGGFSSTQDTVVALHALSKYGAATFTRTGKAAQVTIQSSGTFSSKFQVDNNNRLLLQQVSLPELPGEYSMKVTGEGCVYLQTSLKYNILPEKEEFPFALGVQTLPQTCDEPKAHTSFQISLSVSYTGSRSASNMAIVDVKMVSGFIPLKPTVKMLERSNHVSRTEVSSNHVLIYLDKVSNQTLSLFFTVLQDVPVRDLKPAIVKVYDYYETDEFAIAEYNAPCSKDLGNADYKDDDDKGASHHHHHH
For the molecule B3, the results for the “Protease Inhibition (% of WT)” value in test [1], in test [2] and in test [3] were 100 % of WT, 190 % of WT and 11 % of WT, respectively.

The record behind these values is patent US20230250154A1 (CYTONICS, published 2023).
